The assay deals with recombinant human integrin α5β1 (human) (UniProt P08648).
Sequence of UniProt P08648 (P08648 42-1049, chain 1 of 2): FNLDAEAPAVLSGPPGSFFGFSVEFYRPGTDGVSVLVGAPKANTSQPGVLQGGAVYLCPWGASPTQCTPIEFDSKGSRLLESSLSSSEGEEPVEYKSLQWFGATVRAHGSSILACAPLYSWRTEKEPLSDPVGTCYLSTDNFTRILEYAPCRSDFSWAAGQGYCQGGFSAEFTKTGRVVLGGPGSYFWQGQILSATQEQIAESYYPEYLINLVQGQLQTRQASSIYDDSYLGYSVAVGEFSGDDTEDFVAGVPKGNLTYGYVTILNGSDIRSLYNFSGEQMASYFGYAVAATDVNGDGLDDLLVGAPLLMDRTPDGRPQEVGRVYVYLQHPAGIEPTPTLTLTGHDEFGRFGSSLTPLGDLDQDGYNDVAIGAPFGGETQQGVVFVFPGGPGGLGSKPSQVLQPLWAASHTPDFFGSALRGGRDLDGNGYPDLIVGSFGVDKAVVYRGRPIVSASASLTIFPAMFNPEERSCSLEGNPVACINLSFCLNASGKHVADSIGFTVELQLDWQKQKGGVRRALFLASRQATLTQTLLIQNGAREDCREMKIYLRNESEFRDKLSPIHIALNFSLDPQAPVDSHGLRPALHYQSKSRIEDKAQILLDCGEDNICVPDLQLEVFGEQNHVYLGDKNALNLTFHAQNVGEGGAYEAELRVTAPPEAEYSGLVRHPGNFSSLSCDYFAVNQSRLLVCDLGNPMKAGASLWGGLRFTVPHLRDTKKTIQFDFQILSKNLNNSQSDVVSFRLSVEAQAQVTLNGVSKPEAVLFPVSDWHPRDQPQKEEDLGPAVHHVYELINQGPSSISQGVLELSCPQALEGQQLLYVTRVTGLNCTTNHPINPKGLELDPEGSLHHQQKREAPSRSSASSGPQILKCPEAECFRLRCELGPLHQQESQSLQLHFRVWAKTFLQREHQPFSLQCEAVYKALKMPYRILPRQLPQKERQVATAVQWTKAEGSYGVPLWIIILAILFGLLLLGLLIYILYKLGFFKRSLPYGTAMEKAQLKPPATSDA
Sequence of UniProt P08648 (P05556 21-728, chain 2 of 2, further chain): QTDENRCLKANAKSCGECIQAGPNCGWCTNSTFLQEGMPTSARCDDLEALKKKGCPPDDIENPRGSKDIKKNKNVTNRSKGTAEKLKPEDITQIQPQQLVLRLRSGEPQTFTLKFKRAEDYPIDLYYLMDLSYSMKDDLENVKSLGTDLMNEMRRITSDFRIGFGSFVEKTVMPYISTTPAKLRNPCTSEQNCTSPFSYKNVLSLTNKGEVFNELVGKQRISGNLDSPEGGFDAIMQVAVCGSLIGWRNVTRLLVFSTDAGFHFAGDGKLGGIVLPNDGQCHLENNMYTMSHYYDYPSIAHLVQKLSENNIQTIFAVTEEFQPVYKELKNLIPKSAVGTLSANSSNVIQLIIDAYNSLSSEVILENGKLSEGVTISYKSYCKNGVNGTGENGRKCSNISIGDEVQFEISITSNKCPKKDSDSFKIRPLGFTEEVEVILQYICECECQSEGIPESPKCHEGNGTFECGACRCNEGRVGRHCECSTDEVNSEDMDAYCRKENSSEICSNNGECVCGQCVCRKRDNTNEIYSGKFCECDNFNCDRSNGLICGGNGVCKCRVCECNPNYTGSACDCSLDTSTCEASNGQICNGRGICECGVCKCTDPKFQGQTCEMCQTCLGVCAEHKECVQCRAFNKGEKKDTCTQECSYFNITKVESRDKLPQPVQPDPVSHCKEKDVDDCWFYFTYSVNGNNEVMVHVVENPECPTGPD

On to “native PSG1 (pregnancy-specific glycoprotein 1) purified from the serum of pregnant women (from UniProt P11464 35-419) (natural protein)”, for which the reduction of adhesion of HTR8/SVneo cells to native PSG1 (30 μg/mL coated) by a neutralizing antibody to integrin α5, 21% oxygen came to 45% and the reduction of adhesion of HTR8/SVneo cells to native PSG1 (30 μg/mL coated) by a neutralizing antibody to integrin β1, 21% oxygen stood at 90%.

The values above are taken from PMC6912793.
